Earlier results in patent US20230173142A1, “BALLISTIC DELIVERY TO MULTILAYERED TISSUES AND RELATED PARTICLES, COMPOSITIONS, METHODS AND SYSTEMS” (CALIFORNIA INSTITUTE OF TECHNOLOGY, priority 2021, published 2023).

Test system: wound healing
Conditions: Material: Nanofiber

B1: G-CSF: granulocyte colony-stimulating factor (protein, UniProt P09919 31-207, looked up)
Granulocyte …: TPLGPASSLPQSFLLKCLEQVRKIQGDGAALQEKLVSECATYKLCHPEELVLLGHSLGIPWAPLSSCPSQALQLAGCLSQLHSGLFLYQGLLQALEGISPELGPTLDTLQLDVADFATTIWQQMEELGMAPALQPTQGAMPAFASAFQRRAGGVLVASHLQSFLEVSYRVLRHLAQP
Effect: Improved wound closure, scar reduction, fibroblast maturation, as well
